T1: C1r (Comptech A102) (UniProt P00736 18-705)
T1 sequence (looked up): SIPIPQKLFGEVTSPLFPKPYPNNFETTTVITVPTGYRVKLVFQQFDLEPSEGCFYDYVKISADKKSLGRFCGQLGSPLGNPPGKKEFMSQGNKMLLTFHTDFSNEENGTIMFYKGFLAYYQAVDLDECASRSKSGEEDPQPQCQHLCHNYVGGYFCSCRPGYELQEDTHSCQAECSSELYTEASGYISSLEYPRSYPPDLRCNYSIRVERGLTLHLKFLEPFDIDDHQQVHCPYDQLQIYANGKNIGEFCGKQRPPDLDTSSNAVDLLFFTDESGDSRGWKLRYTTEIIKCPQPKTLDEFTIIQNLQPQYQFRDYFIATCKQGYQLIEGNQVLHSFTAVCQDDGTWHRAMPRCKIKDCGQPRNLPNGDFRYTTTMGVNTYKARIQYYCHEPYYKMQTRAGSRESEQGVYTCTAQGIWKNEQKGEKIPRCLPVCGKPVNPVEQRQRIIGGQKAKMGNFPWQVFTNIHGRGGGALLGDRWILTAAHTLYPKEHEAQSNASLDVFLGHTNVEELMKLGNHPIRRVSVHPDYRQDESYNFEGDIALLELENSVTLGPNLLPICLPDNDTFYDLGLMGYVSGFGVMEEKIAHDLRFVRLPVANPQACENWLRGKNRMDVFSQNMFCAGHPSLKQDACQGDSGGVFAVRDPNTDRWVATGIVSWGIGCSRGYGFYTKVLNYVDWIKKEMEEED

T2: aCls (Comptech A104) (UniProt P09871 16-688)
T2 construct: the active enzyme is a two-chain form of this precursor; also called aC1s
T2 sequence (looked up): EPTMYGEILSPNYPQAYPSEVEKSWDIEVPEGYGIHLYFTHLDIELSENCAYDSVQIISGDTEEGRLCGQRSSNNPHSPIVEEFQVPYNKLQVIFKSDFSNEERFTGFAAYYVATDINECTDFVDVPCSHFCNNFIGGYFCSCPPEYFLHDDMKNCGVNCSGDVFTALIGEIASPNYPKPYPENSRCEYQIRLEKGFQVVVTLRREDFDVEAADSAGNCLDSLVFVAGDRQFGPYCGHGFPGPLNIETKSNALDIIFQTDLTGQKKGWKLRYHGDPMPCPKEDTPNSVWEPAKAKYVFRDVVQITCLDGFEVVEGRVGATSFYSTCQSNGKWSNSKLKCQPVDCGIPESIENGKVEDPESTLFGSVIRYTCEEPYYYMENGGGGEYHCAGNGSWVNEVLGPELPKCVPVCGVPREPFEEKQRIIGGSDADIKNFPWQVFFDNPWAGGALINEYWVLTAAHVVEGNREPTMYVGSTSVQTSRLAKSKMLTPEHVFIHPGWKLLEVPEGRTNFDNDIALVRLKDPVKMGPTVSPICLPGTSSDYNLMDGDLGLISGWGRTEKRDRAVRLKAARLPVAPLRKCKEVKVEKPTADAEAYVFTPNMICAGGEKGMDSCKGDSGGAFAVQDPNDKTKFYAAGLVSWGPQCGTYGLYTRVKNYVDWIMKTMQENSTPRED

T3: C2a (prepared from C2) (UniProt P06681 244-752, limits assumed)
T3 construct: domain: C2a
T3 sequence (looked up): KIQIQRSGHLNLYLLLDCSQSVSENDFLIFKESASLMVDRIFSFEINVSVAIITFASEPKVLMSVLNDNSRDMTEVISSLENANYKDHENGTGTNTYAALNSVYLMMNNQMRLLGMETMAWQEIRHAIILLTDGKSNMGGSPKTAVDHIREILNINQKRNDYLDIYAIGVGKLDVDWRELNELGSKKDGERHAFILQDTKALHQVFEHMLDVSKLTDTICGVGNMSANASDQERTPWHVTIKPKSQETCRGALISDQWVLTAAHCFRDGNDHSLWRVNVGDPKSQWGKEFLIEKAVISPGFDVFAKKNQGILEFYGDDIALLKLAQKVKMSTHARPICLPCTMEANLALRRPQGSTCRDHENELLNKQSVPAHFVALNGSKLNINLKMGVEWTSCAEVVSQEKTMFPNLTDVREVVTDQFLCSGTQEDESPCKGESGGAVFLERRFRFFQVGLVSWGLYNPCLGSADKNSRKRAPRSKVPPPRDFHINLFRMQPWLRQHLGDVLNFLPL


Assays:
[1] = target: T4, Homo sapiens factor Bb protein (human, UniProt P00751 260-764); test: ELISA, factor Bb coated at 2.5 µg/mL, biotinylated antibody titrated, streptavidin-HRP, OD450 background subtracted
T4 construct: Bought from CompTech (A155); also called complement factor Bb; human factor Bb
T4 sequence (P00751 260-764 limits assumed): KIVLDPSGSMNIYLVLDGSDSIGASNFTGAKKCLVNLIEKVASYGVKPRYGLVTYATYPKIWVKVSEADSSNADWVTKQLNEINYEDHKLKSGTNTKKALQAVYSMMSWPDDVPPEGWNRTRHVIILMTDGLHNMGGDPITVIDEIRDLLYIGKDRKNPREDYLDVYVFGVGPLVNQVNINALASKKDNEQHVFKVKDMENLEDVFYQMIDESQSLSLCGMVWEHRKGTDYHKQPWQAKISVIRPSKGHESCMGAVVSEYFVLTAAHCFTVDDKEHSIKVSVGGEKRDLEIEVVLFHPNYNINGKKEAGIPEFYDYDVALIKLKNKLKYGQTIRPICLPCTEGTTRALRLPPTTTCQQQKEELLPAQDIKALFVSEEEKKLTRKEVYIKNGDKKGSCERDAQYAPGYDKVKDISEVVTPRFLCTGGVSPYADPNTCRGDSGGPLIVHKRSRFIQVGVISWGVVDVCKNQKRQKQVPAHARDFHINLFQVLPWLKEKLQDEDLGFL
Procedure: (§1) Briefly, complement and plasma proteins were coated onto ELISA plates at 2. 5 μg/mL in PBS overnight at 4° C. Plates were then blocked with Casein for 1 hour at room temperature and washed four times with 1× DPBS/0.05% Tween-20 followed by a single wash with 1× DPBS. Serial dilutions starting at 50 μg/ml of biotinylated chimeric parent or VH6/VK7-IgG4v2 were added to the plate in PBS/0.1%casein/0.1%Tween-20 and incubated for 2 hours at room temperature. Plates were washed as described and a 1:10,000 dilution of streptavidin-HRP (Southern Biotech 7100-05) in PBS/0.1% casein/0.1% Tween-20 was added to the plate and incubated for 30 minutes at room temperature. Plates were again washed and Ultra TMP ELISA (Thermo 34028) was added to the plate for 1 minute, followed by stop solution). OD 450 nm was read in a plate reader and background at 620 nm was subtracted. Both the chimeric parent (FIG. 8A) and the humanized variant (FIG. 8B) show complete specificity for factor Bb.

C1r (Comptech A102) = target: T1, C1r (Comptech A102); test: ELISA, target coated at 2.5 µg/mL, biotinylated antibody titrated, streptavidin-HRP, OD450 background subtracted
Procedure: as §1

aCls (Comptech A104) = target: T2, aCls (Comptech A104); test: as above
Procedure: as §1

C2a (prepared from C2) = target: T3, C2a (prepared from C2); test: as above
Procedure: as §1

[2] = target: thrombin (EMD Millipore 605195) (UniProt P00734 328-622); test: as above
Procedure: as §1

[3] = target: factor D (Competech A136) (UniProt P00746 26-253); test: as above
Sequence of factor D (Competech A136) (P00746 26-253 limits assumed): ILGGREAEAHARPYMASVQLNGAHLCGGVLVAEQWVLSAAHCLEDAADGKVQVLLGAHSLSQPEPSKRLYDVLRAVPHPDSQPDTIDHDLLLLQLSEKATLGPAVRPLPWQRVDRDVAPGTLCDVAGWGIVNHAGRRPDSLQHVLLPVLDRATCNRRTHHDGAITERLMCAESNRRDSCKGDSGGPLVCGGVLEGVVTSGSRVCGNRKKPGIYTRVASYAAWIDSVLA
Procedure: as §1

Row | Binder | EC50 (read off the curve) [1] | binding result (C1r (Comptech A102)) | binding result (aCls (Comptech A104)) | binding result (C2a (prepared from C2)) | binding result [2] | binding result [3]
1 | VH0/Vκ0 (Chimeric) (antibody, V domains shown, also called chimeric antibody) VH: EVQLVESGGALVKPGGSLKLSCAASGFTFSNYAMSWVRQTPEKRLEWVATISNRGSYTYYPDSVKGRFTISRDNAKNTLYLQMSSLRSEDTALYYCARERPMDYWGQGTSVTVSS VL: DIVMTQSHKFMSTSVGDRVSITCKASQDVGTAVAWYQQKPGQSPKLLIYWASTRHTGVPDRFTGSGSGTDFTLTITNVQSEDLAVYFCHQHSSNPLTFGAGTKLELK | ~10 ng/mL | no binding (tested: about 10^5 ng/mL (log 5 on the axis)) | no binding (tested: about 10^5 ng/mL (log 5 on the axis)) | no binding (tested: about 10^5 ng/mL (log 5 on the axis)) | no binding (tested: about 10^5 ng/mL (log 5 on the axis)) | no binding (tested: about 10^5 ng/mL (log 5 on the axis))
2 | VH6/Vκ7-IgG4v2 (antibody, also called VH6/VK7-IgG4v2; VH6/VK7-IgG4v2_HEK) heavy: not shown light: DIQMTQSPSTLSASVGDRVTITCKASQDVGTAVAWYQQKPGKAPKLLIYWASTRHTGVPDRFSGSGSGTDFTLTISSLQAEDFAVYFCHQHSSNPLTFGQGTKLEIKRTVAAPSVFIFPPSDEQLKSGTASVVCLLNNFYPREAKVQWKVDNALQSGNSQESVTEQDSKDSTYSLSSTLTLSKADYEKHKVYACEVTHQGLSSPVTKSFNRGEC | ~20 ng/mL | no binding | no binding | no binding | no binding | no binding

— patent US20210332115A1 (Sanofi, published 2021)
